± gives the uncertainty stated by the source.
B1: Zinc finger MYM-type protein 3, residues 405 to 444; numbered along this chain, Q14202 (parent)
chain: DATRCSICQKTGEVLHEVSNGSVVHRLCSDSCFSKFRANK

Variants of: B1
Test: abundance fitness (aPCA) (normalised: wild type 0, dead -1); higher = more abundant; growth selection in yeast, the domain comes from the species named
Settings: Homo sapiens

| Variant | abundance fitness |
| --- | --- |
| DATRCSICQKTGEVLHEVSNGSVVHRLISDSCFSKFRANK | -0.95 ± 0.18 |
| DATRCSICQKTGEVLHEVSNGSVVHRLWSDSCFSKFRANK | -1.02 ± 0.08 |
| DATRCSICQKTGEVLHEVSNGSVVHRLESDSCFSKFRANK | -0.576 ± 0.069 |
| DATRCSICQKTGEVLHEVSNGSVVHRLLSDSCFSKFRANK | -0.886 ± 0.062 |
| DATRCSICQKTGEVLHEVSNGSVVHRLRSDSCFSKFRANK | -0.873 ± 0.061 |
| DATRCSICQKTGEVLHEVSNGSVVHRLNSDSCFSKFRANK | -0.765 ± 0.11 |
| DATRCSICQKTGEVLHEVSNGSVVHRLYSDSCFSKFRANK | -0.85 ± 0.12 |
| DATRCSICQKTGEVLHEVSNGSVVHRLDSDSCFSKFRANK | -0.529 ± 0.081 |
| DATRCSICQKTGEVLHEVSNGSVVHRLASDSCFSKFRANK | -0.594 ± 0.058 |
| DATRCSICQKTGEVLHEVSNGSVVHRLPSDSCFSKFRANK | -0.639 ± 0.083 |
| DATRCSICQKTGEVLHEVSNGSVVHRLQSDSCFSKFRANK | -0.809 ± 0.082 |
| DATRCSICQKTGEVLHEVSNGSVVHRLHSDSCFSKFRANK | -0.733 ± 0.086 |
| DATRCSICQKTGEVLHEVSNGSVVHRLVSDSCFSKFRANK | -0.808 ± 0.063 |
| DATRCSICQKTGEVLHEVSNGSVVHRLKSDSCFSKFRANK | -0.823 ± 0.097 |
| DATRCSICQKTGEVLHEVSNGSVVHRLFSDSCFSKFRANK | -1.09 ± 0.12 |
| DATRCSICQKTGEVLHEVSNGSVVHRLTSDSCFSKFRANK | -0.853 ± 0.094 |
| DATRCSICQKTGEVLHEVSNGSVVHRLGSDSCFSKFRANK | -0.623 ± 0.054 |
| DATRCSICQKTGEVLHEVSNGSVVVRLCSDSCFSKFRANK | -0.507 ± 0.059 |
| DATRCSICQKTGEVLHEVSNGSVVLRLCSDSCFSKFRANK | -0.266 ± 0.056 |
| DATRCSICQKTGEVLHEVSNGSVVMRLCSDSCFSKFRANK | -0.129 ± 0.066 |
| DATRCSICQKTGEVLHEVSNGSVVSRLCSDSCFSKFRANK | -0.138 ± 0.056 |

| Variant | abundance fitness |
| --- | --- |
| DATRCSICQKTGEVLHEVSNGSVVIRLCSDSCFSKFRANK | -0.216 ± 0.076 |
| DATRCSICQKTGEVLHEVSNGSVVTRLCSDSCFSKFRANK | -0.046 ± 0.056 |
| DATRCSICQKTGEVLHEVSNGSVVPRLCSDSCFSKFRANK | -0.363 ± 0.073 |
| DATRCSICQKTGEVLHEVSNGSVVERLCSDSCFSKFRANK | 0.205 ± 0.058 |
| DATRCSICQKTGEVLHEVSNGSVVWRLCSDSCFSKFRANK | -0.247 ± 0.061 |
| DATRCSICQKTGEVLHEVSNGSVVKRLCSDSCFSKFRANK | -0.006 ± 0.061 |
| DATRCSICQKTGEVLHEVSNGSVVYRLCSDSCFSKFRANK | -0.385 ± 0.097 |
| DATRCSICQKTGEVLHEVSNGSVVNRLCSDSCFSKFRANK | -0.031 ± 0.081 |
| DATRCSICQKTGEVLHEVSNGSVVRRLCSDSCFSKFRANK | -0.318 ± 0.054 |
| DATRCSICQKTGEVLHEVSNGSVVQRLCSDSCFSKFRANK | -0.038 ± 0.065 |
| DATRCSICQKTGEVLHEVSNGSVVARLCSDSCFSKFRANK | -0.122 ± 0.055 |
| DATRCSICQKTGEVLHEVSNGSVVGRLCSDSCFSKFRANK | -0.164 ± 0.053 |
| DATRCSICQKTGEVLHEVSNGSVHHRLCSDSCFSKFRANK | -0.034 ± 0.075 |
| DATRCSICQKTGEVLHEVSNGSVGHRLCSDSCFSKFRANK | -0.255 ± 0.052 |
| DATRCSICQKTGEVLHEVSNGSVTHRLCSDSCFSKFRANK | -0.038 ± 0.061 |
| DATRCSICQKTGEVLHEVSNGSVWHRLCSDSCFSKFRANK | -0.292 ± 0.066 |
| DATRCSICQKTGEVLHEVSNGSVLHRLCSDSCFSKFRANK | -0.077 ± 0.051 |
| DATRCSICQKTGEVLHEVSNGSVIHRLCSDSCFSKFRANK | -0.064 ± 0.089 |
| DATRCSICQKTGEVLHEVSNGSVFHRLCSDSCFSKFRANK | -0.307 ± 0.12 |
| DATRCSICQKTGEVLHEVSNGSVKHRLCSDSCFSKFRANK | 0.032 ± 0.068 |
| DATRCSICQKTGEVLHEVSNGSVCHRLCSDSCFSKFRANK | -0.206 ± 0.073 |

| Variant | abundance fitness |
| --- | --- |
| DATRCSICQKTGEVLHEVSNGSVYHRLCSDSCFSKFRANK | -0.133 ± 0.072 |
| DATRCSICQKTGEVLHEVSNGSVMHRLCSDSCFSKFRANK | 0.048 ± 0.065 |
| DATRCSICQKTGEVLHEVSNGSVEHRLCSDSCFSKFRANK | -0.03 ± 0.064 |
| DATRCSICQKTGEVLHEVSNGSVVHRLCSCSCFSKFRANK | -1.66 ± 0.31 |
| DATRCSICQKTGEVLHEVSNGSVVHRLCSFSCFSKFRANK | -0.632 ± 0.13 |
| DATRCSICQKTGEVLHEVSNGSVVHRLCSWSCFSKFRANK | -1.07 ± 0.12 |
| DATRCSICQKTGEVLHEVSNGSVVHRLCSHSCFSKFRANK | -0.425 ± 0.15 |
| DATRCSICQKTGEVLHEVSNGSVVHRLCSPSCFSKFRANK | -0.371 ± 0.1 |
| DATRCSICQKTGEVLHEVSNGSVVHRLCSQSCFSKFRANK | -0.079 ± 0.096 |
| DATRCSICQKTGEVLHEVSNGSVVHRLCSRSCFSKFRANK | -0.231 ± 0.056 |
| DATRCSICQKTGEVLHEVSNGSVVHRLCSISCFSKFRANK | -0.734 ± 0.21 |
| DATRCSICQKTGEVLHEVSNGSVVHRLCSYSCFSKFRANK | -0.857 ± 0.34 |
| DATRCSICQKTGEVLHEVSNGSVVHRLCSMSCFSKFRANK | -0.28 ± 0.088 |
| DATRCSICQKTGEVLHEVSNGSVVHRLCSSSCFSKFRANK | -0.387 ± 0.073 |
| DATRCSICQKTGEVLHEVSNGSVVHRLCSKSCFSKFRANK | -0.109 ± 0.096 |
| DATRCSICQKTGEVLHEVSNGSVVHRLCSESCFSKFRANK | -0.041 ± 0.066 |
| DATRCSICQKTGEVLHEVSNGSVVHRLCSNSCFSKFRANK | -0.721 ± 0.31 |
| DATRCSICQKTGEVLHEVSNGSVVHRLCSLSCFSKFRANK | -0.398 ± 0.057 |
| DATRCSICQKTGEVLHEVSNGSVVHRLCSGSCFSKFRANK | -0.269 ± 0.056 |
| DATRCSICQKTGEVLHEVSNGSVVHRLCSVSCFSKFRANK | -0.384 ± 0.062 |

— the Human Domainome abundance scans (Beltran et al. 2025)
